Measured values published in publication PMC4398458, “Reversible Linkage of Two Distinct Small Molecule Inhibitors of Myc Generates a Dimeric Inhibitor with Improved Potency That Is Active in Myc Over-Expressing Cancer Cell Lines” (PLoS ONE, 2015).

Molecular target: c-Myc bHLH-LZ;Max (human;human, UniProt P01106-1;P61244 352-439;1-160, |)
Assay: EMSA; Myc:Max heterodimer, no inhibitor; EMSA: 100 mM KCl, 1 mM DTT, 1 mM EDTA, 50 mM Tris pH 7.4, 5 mM MgCl2, 0.002% NP40, 2% DMSO, room temperature; 200 ng Myc, 350 ng Max, 100 nM DNA, 10 ul; gel run in TBE at 4 C
Conditions: protein: recombinant;commercial; tags: N-terminal 6xHis with TEV cleavage site; C-terminal GGCD extension;His and GST; copies: 1;1; label: none (SYBR Green stain); (only one strand given)

Sequence of c-Myc bHLH-LZ;Max (P01106 367-454, chain 1 of 2): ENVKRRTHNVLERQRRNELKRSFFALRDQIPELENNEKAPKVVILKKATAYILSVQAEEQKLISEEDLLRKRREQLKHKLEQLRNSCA
Sequence of c-Myc bHLH-LZ;Max (P61244 whole entry, chain 2 of 2): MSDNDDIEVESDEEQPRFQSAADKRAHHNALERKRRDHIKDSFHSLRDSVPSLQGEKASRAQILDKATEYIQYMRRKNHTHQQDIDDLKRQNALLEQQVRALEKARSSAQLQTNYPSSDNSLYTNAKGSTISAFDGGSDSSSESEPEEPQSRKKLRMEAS

B1: E-box oligonucleotide (dsDNA)
DNA 1: GATCAGTTGACCACGTGGTCTGGG
DNA 2: CCCAGACCACGTGGTCAACTGATC
Q: Does B1 bind?
A: Result: binds
